Substrate in this data set: O=P(O)(O)O[C@@H]1[C@@H](OP(=O)(O)O)[C@H](OP(=O)(O)O)[C@H](O)[C@H](OP(=O)(O)O)[C@H]1OP(=O)(O)O
Description: Kinase-Glo Max luminescent kinase assay; Michaelis-Menten nonlinear regression. The format is biochemical, Trametes hirsuta. The note with it: 300 µM ATP, 5 mM MgCl2, 50 mM NaCl, 50 mM Tris pH 7.5, 28°C.

This note sets out measurements from paper PMC12421882, “ThIPK1 regulates lignocellulolytic enzyme expression during wood degradation in white-rot fungi” (mBio, 2025).

B1: ThIPK1 (Trametes hirsuta) (protein)
chain: MENDAPIIGDTSPQDWKYISEGGSTIVFSYVGPPHPSFDGTALRLRKGPTPAHEDPEKYEKPSLAPAEPSQEPEASAAGGADDEEPDDPTVVFQRTVIERLVPTAHLPRLQPVRVARAWLAQLAARTEALRPAERRARDAIDLGRRKAVLATDLVGGEGWAVEIKPKWGFLPQPAYLSPETRAIKTRTCRFCMHAQLKKTEGEDVALGYCPLDLYSGDAGRVERALRELWDVWVGSGGAVNNLRVFVQGKMVKPSADPASLAPLTAQLLPPTSTTSPDSEPPAATRPPDTLRDAFIATLLPLLLDTPVLRTLSTLQRTLDALDIEGLAALWARVHPAHALGTGPGPGAADPDIAAWARFVDEHIDRLAQAAEDAKGAGEGEGQGENGSEVPATEDELRYRVAAYLLGASFKDCSLILRMRPHAQGTVTVIDLDVKSADRLGKWAALDREIVDAYRGVSNARRCVDAHYGAVPLP
notes: full-length cDNA in pET28a(+), E. coli BL21(DE3), Ni-NTA
With B1, the Km is 31.42 µM.
